Assay [1] deals with T1, GST alone control protein (UniProt P08515 1-218 = GST).
T1 construct: Negative control; also called GST control protein; control GST alone protein
Put plainly: SPR (Biacore J), control injected over SAA on CM5 chip. How it is done:
(§1) The 96% pure SAA was covalently bound to the biospecific sensor surface of the Biacore J (biacore, Sweden). This surface consists of a gold-coated glass slide mounted in a plastic holder (the sensor chip). The CM5 chip (biacore, Sweden) was used for all experiments and this chip is covered with a hydrophilic matrix, consisting of carboxymethylated dextran to which the SAA was covalently bound. The tanis protein fragments were injected into the system and flowed across this chip and sensorgrams were recorded in real-time.
(§2) The interaction of the proteins is indicated by the failure of the response to return to the baseline RU value. The difference between the values post injection (points 1, 3, 5, 7) indicates a binding event between full length tanis and SAA. The difference between the injection point and the max RU indicates the affinity between the two proteins. […] These sensorgrams indicate a potentially high affinity binding with a rapid dissociation of the binding event. A series of controls have also been injected across the SAA chip, these were GST alone, BSA (NEB, USA) alone and buffer alone.

A further assay has as its target T2, BSA (NEB, USA) (UniProt P02769 25-607).
T2 construct: Negative control
Described as above. How it is done:
as §1, §2

These results are taken from patent US20040248767A1 (AUTOGEN RESEARCH, published 2004).

T1 sequence (P08515 whole entry): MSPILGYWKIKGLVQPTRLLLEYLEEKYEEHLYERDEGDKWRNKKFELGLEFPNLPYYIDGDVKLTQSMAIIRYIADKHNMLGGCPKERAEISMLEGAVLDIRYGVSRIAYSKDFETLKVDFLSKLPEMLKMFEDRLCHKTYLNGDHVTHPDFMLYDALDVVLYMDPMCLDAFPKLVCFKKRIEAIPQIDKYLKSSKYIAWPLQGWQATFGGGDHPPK
T2 sequence (P02769 25-607 limits assumed): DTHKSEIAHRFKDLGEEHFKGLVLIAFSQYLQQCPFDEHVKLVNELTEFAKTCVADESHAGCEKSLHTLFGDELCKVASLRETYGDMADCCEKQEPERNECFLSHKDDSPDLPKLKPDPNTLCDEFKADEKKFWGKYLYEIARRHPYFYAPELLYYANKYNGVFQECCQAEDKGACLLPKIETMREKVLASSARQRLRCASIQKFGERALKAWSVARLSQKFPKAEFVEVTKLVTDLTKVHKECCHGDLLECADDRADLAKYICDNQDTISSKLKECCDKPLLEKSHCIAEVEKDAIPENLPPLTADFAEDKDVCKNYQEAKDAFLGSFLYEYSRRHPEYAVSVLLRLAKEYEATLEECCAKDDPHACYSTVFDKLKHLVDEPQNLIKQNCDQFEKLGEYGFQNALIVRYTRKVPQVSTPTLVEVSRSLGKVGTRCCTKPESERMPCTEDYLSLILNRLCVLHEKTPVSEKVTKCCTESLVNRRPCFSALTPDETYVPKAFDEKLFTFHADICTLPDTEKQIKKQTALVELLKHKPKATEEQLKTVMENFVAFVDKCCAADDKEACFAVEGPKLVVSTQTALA

B1: Serum amyloid A (SAA) purified from human sera / human plasma (Trace Scientific) (ligand, UniProt P0DJI8 19-122, looked up)
chain: RSFFSFLGEAFDGARDMWRAYSDMREANYIGSDKYFHARGNYDAAKRGPGGAWAAEVITDARENIQRFFGHGAEDSLADQAANEWGRSGKDPNHFRPAGLPEKY
notes: also called human plasma SAA
Consider B1, for which the binding result in assay [1] was “no binding”; in the assay with BSA (NEB, USA), “no binding”.
